From US9999679B2, “Aminofucoidan as a vector for fibrinolysis in thrombotic diseases” (INSTITUT NATIONAL DE LA SANTE ET DE LA RECHERCHE MEDICALE, priority 2013, dated 2018)

Tests used:
[1] = Product No 173 from American diagnostic; cited from earlier work
mesenteric thrombi = experiment: FeCl3-induced mesenteric vessel thrombosis, intravital imaging of thrombolysis; format: in vivo; details: mice, intravenous; 1 hour following FeCl3-induced injury (~45 min following treatment)
Text: The group has recently published the ability of intravital microscopy to follow the lysis of thrombus in vivo. Thus, validation of t-PA vectorization by amino-fucoidans with intravital microscopy has been carried out according to the protocols described in Boulaftali et al. (Boulaftali et al., 2011, Platelet protease nexin-1, a serpin that strongly influences fibrinolysis and thrombolysis. Circulation; Boulaftali et al., 2012, The mouse dorsal skinfold chamber as a model for the study of thrombolysis by intravital microscopy. Thromb Haemost).
The thrombus is induced by local application of iron oxide on exposed vessels in mice. Fluorescent t-PA or a mixture of amino-fucoidans and t-PA are intravenously injected after iron oxide local application The fluorescence of t-PA and thrombus lysis were followed by intravital transillumination of the mesenteric tissue.
More precisely, after anesthesia (100 mg/kg ketamine, 10 mg/kg xylazine) and laparotomy, mouse mesenteric vessels were exposed for induction of thrombosis and video-microscopic intravital observation. […] Platelet deposition and thrombus growth were monitored for 15 minutes following injury and fluorescent t-PA±DiLysine-fucoidan was then injected intravenously to thrombolysis of the partially occlusive-formed thrombi. […]

platelet-poor thrombus = experiment: Ex vivo fibrinolysis of platelet-poor plasma clots (fluorescence release, clot weight loss); design: species or system Human
Description: (§1) Human platelet-rich and -poor plasma (PRP and PPP) were obtained from citrated blood after two centrifugation steps: at 120 g for 15 minutes followed by a second centrifugation step at 1200 g for 12 min. PRP was adjusted to 3×10^8 platelets per mL with poor platelet plasma (PPP) and supplemented with 75 μg/mL of fluorescein isothiocyanate-fibrinogen. Clot formation was induced by adding 10 mmol/L CaCl2 in glass tubes and incubated for 1 hour at 37° C. After retraction, clots were washed in Hank's buffer (Sigma), rapidly dryed on an absorbent paper and weighed. To assess fibrinolysis, PRP or PPP clots were incubated in Hanks' buffer containing the vectorized t-PA complexes (corresponding to 10 UI of t-PA, or 1.72 μg/mL) for 1 h at room temperature. Clots were transferred in a new eppendorf containing 500 μl of Hank's buffer supplemented with 1 μM of human plasminogen. The kinetic of fibrinolysis was evaluated by measuring the release of fluorescence from the clot to the supernatant with a spectrofluorimeter (485/520 nm). […]
(§2) Aminofucoidans were used in variables molecular ratio to t-PA (10 UI (corresponding to 1.72 μg/ml): the 1/10 ratio was used for mono-amine fucoidans and 1/5 for poly-amine fucoidans. Evaluation criteria were the initial lysis kinetic (appearance of fluorescence in supernatant) and the final thrombus weight loss at 17H/37° C. incubation. […]

platelet-rich thrombus = experiment: Ex vivo fibrinolysis of platelet-rich plasma clots (fluorescence release, clot weight loss); design: species or system Human; details: 17H/37° C. incubation; p<0.01; FIG. 1
Description: as §1, §2

[2] = test system: thrombus performed in total blood, including Red Blood Cells; experiment: Rotative thromboelastography (Rotem) lysis of thrombus in total blood; details: plasma PAI-1 present, ratio (t-PA/fuco) 1/5 or 1/10
Text: Thromboelastography experiments have been carried out on a rotative thromboelastograph (Rotem®) as described in Boulaftali et al. (Boulaftali Y, Ho Tin Noe B, Pena A, Loyau S, Venisse L, Francois D, Richard B, Arocas V, Collet J P, Jandrot-Perrus M, Bouton M C. PLatelet Protease Nexin-1, a Serpin that Strongly Influences Fibrinolysis and Thrombolysis. Circulation. 2011; 123:1326-1334) and Mallet et al. (Mallet S V, Cox D J A. Thromboelastograph Analysis. British J of anaest. 1992; 69:307-313).
In a third series of in vitro experiments, the ability of aminofucoidans to accelerate the lysis of a thrombus performed in total blood, including Red Blood Cells, has been tested with rotative thromboelastography (Rotem®). In this experiment dilysine-fucoidan vectorized t-PA, in a ratio (t-PA/fuco) of 1/5 or 1/10 increased the thrombus lysis to 75% as compared to t-PA alone (55%). In this experiment, the plasma PAI-1 was present.

B1: t-PA: Single-chain recombinant tissue plasminogen activator, secreted by CHO cells transfected with human t-PA cDNA (American diagnostica) (protein, listed as Homo sapiens)
chain: MDAMKRGLCCVLLLCGAVFVSPSQEIHARFRRGARSYQVICRDEKTQMIYQQHQSWLRPVLRSNRVEYCWCNSGRAQCHSVPVKSCSEPRCFNGGTCQQALYFSDFVCQCPEGFAGKCCEIDTRATCYEDQGISYRGTWSTAESGAECTNWNSSALAQKPYSGRRPDAIRLGLGNHNYCRNPDRDSKPWCYVFKAGKYSSEFCSTPACSEGNSDCYFGNGSAYRGTHSLTESGASCLPWNSMILIGKVYTAQNPSAQALGLGKHNYCRNPDGDAKPWCHVLKNRRLTWEYCDVPSCSTCGLRQYSQPQFRIKGGLFADIASHPWQAAIFAKHRRSPGERFLCGGILISSCWILSAAHCFQERFPPHHLTVILGRTYRVVPGEEEQKFEVEKYIVHKEFDDDTYDNDIALLQLKSDSSRCAQESSVVRTVCLPPADLQLPDWTECELSGYGKHEALSPFYSERLKEAHVRLYPSSRCTSQHLLNRTVTDNMLCAGDTRSGGPQANLHDACQGDSGGPLVCLNDGRMTLVGIISWGLGCGQKDVPGVYTKVTNYLDWIRDNMRP
modifications: single-chain recombinant; /mol_type=“protein” /organism=“Homo sapiens”
specific activity [1]: approximately 580 000 UI/mg | vessel occlusion / perfusion of injured vessels (mesenteric thrombi): occlusive thrombosis of injured vessels had occurred in all 3 mice | thrombi weight loss at 17H (platelet-poor thrombus): 97% | loss of platelet-rich thrombus weight (platelet-rich thrombus): 30% | thrombus lysis [2]: 55%
